Data on two molecules can be found in US20220251222A1 (Johns Hopkins, published 2022).

Assay [1] deals with T1, IL-6Rα and IL-8R co-expressed on IL-6Rα^+/IL-8R^+ HEK 293T cells (UniProt P08887 20-468; P25025 1-360, limits assumed).
T1 construct: whole, on cells; Not a complex: two separate receptors on the same cell; also called IL-6Rα^+/IL-8R^+ 293T cells
T1 sequence (looked up) 1: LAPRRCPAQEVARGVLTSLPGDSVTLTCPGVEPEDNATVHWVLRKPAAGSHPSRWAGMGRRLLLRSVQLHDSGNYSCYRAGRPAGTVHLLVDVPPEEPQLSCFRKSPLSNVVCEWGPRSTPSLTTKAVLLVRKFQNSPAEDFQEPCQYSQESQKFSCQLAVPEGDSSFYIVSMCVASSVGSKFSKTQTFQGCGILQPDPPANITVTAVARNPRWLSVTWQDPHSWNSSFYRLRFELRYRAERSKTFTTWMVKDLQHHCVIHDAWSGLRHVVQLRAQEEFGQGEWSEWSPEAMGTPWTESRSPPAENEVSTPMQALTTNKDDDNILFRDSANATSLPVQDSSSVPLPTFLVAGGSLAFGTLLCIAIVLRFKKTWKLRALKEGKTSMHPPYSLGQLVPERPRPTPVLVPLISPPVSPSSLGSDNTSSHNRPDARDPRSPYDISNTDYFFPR
T1 sequence (looked up) 2: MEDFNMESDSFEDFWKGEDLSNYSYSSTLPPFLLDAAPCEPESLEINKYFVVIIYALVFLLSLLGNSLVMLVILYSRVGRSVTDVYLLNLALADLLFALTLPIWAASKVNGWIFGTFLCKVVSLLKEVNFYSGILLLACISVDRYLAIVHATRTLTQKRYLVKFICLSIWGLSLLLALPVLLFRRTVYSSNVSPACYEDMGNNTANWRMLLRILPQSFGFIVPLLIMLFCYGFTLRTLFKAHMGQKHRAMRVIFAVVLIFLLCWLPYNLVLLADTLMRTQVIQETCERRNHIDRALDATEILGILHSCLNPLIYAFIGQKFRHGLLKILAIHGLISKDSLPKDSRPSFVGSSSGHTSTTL
In words: flow cytometry titration on IL-6Rα+/IL-8R+ HEK 293T cells (both targets present); IL-6Rα+/IL-8R+ 293T cells, both targets present (FIG. 7C). Here is the method:
(§1) HEK 293T cells were cultured in Dulbecco's modified Eagle's medium (DMEM, Mediatech) supplemented with 10% (Hyclone), 2 mM L-glutamine and 100 U/mL penicillin-streptomycin (Gibco). For surface binding assays, IL-6Rα⁺/IL-8R⁻, IL-6Rα⁻/IL-8R⁺, IL-6Rα⁺/IL-8R⁺, and […] HEK 293T cells were trypsinized for detachment, resuspended in PBSA, and then aliquoted into 96-well plates (1×10⁵ cells per well). Cells were incubated with titrations of various monoclonal or bispecific antibodies for 2 hr at 4° C. with rotation. Cells were then washed and incubated with a 1:50 dilution of fluorescein isothiocyanate (FITC)-conjugated anti-human IgG1 antibody (Sigma-Aldrich, Clone 8c/6-39) in PBSA for 15 min at 4° C. After a final wash, cells were resuspended in PBSA and analyzed on a CytoFLEX flow cytometer (Beckman Coulter). Binding isotherms were fitted to a first-order logistic model and KD values were calculated using GraphPad Prism data analysis software. Mean fluorescence intensity (MFI) of unstimulated cells was subtracted. […]
(§2) To determine whether engineered bispecific binding agents BS1 and BS2 specifically engage target antigens in a physiologically relevant context, antibody binding to IL-6Rα⁺/IL-8R⁻, IL-6Rα⁻/IL-8R⁺, IL-6Rα⁺/IL-8R⁺, and IL-6Rα⁻/IL-8R⁻ lentivirally transduced HEK 293T cells was measured via flow cytometry. […]
A general note: In flow cytometry, cells or beads pass a laser one at a time.

For assay [2], the target named is T2, IL-8RB expressed on lentivirally transduced HEK 293T cells (UniProt P25025 1-360, limits assumed).
T2 construct: whole, on cells; also called IL-8R^+ cells; IL-6Rα^-/IL-8R^+ HEK 293T cells
T2 sequence (looked up): T1 sequence (looked up) 2
Briefly: flow cytometry binding titration on IL-6R-/IL-8R+ HEK 293T cells, detected with FITC anti-human IgG1. Here is the method:
as §1, §2

Assay [3] addresses T3, human IL-6Rα extracellular domain (ECD), residues 89-303 of the mature protein, with C-terminal biotin … (human, UniProt P08887 108-322, biotinylated with BirA ligase on the biotin acceptor peptide).
T3 construct: range 89-303; The range 89-303 counts on the mature protein, not on the precursor; Any linkers between the ECD, BAP and His tag are not described; also called IL-6Rα ECD; recombinant IL-6Rα
T3 sequence: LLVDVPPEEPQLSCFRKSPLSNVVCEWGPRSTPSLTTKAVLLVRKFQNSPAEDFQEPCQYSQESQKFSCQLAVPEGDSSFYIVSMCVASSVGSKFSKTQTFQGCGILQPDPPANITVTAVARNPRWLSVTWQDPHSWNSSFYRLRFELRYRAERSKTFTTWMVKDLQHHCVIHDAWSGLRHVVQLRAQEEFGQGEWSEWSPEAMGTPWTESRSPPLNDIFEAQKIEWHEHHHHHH
Briefly: BLI equilibrium titration, biotinylated IL-6Rα ECD on streptavidin tips; bivalent IgG, BLI on recombinant IL-6Rα. Here is the method:
Biotinylated human IL-6Rα ECD was immobilized to streptavidin-coated tips for analysis on an Octet® Red96 BLI instrument (ForteBio). Less than 5 signal units (nm) of receptor was immobilized to minimize mass transfer effects. Tips were exposed to serial dilutions of the anti-IL-6R antibody tocilizumab, the anti-IL-8R antibody 10H2, BS1, or BS2 in a 96-well plate for 300 s and dissociation was measured for 600 s. Surface regeneration for all interactions was conducted using 15 s exposure to 0.1 M glycine pH 3.0. Experiments were carried out in PBSA (phosphate-buffered saline [PBS] pH 7.3 plus 0.1% bovine serum albumin [BSA, Thermo]) at 25° C. Data was visualized and processed using the Octet® Data Analysis software version 7.1 (ForteBio). Equilibrium titration curve fitting and equilibrium dissociation constant (KD) value determination was implemented in GraphPad Prism software using a first-order logistic model. Experiments were reproduced two times with similar results.
To confirm functionality of our bispecific agents, antibodies were titrated against recombinant IL-6Rα via BLI. […] Moreover, both tocilizumab-containing engineered bispecific binding agents also bound IL-6Rα (FIG. 5).

Assay [4] addresses T4, IL-6Rα expressed on lentivirally transduced HEK 293T cells (UniProt P08887 20-468, limits assumed).
T4 construct: whole, on cells; also called IL-6Rα^+ cells; IL-6Rα^+/IL-8R^- HEK 293T cells
T4 sequence (looked up): T1 sequence (looked up) 1
In words: flow cytometry titration on IL-6Rα+/IL-8R+ HEK 293T cells; IL-6Rα+/IL-8R+ 293T cells (FIG. 7C). How it is done:
as §1, §2

B1: BS2 bispecific antibody (scFv-IgG fusion: 10H2 IgG with tocilizumab scFv on the light chains) (bispecific antibody)
heavy: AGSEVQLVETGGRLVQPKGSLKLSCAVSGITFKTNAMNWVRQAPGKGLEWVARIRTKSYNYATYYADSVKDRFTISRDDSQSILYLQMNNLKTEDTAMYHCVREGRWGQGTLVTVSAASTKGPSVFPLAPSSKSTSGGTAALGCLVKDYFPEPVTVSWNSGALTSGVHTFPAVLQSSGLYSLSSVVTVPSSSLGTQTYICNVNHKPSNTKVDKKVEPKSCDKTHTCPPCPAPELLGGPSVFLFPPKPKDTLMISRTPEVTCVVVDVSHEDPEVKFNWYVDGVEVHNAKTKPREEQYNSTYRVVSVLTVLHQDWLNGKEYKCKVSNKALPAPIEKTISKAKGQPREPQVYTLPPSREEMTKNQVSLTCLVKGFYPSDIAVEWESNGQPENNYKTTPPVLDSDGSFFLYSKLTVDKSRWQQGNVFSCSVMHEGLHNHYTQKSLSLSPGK
light: AGSQAVVTQESALTTSPGETVTLTCRSSTGAVTTSNYANWVQEKPDHLFTGLIGGTNNRPPGVPARFSGSLIGDKAALTITGAQIEDEAIYFCALWYSNHLVFGGGTKLTVLRTVAAPSVFIFPPSDEQLKSGTASVVCLLNNFYPREAKVQWKVDNALQSGNSQESVTEQDSKDSTYSLSSTLTLSKADYEKHKVYACEVTHQGLSSPVTKSFNRGECGGGGSGGGGSEVQLQESGPGLVRPSQTLSLTCTVSGYSITSDHAWSWVRQPPGRGLEWIGYISYSGITTYNPSLKSRVTMLRDTSKNQFSLRLSSVTAADTAVYYCARSLARTTAMDYWGQGSLVTVSSGGGGSGGGGSGGGGSDIQMTQSPSSLSASVGDRVTITCRASQDISSYLNWYQQKPGKAPKLLIYYTSRLHSGVPSRFSGSGSGTDFTFTISSLQPEDIATYYCQQGNTLPYTFGQGTKVEIK
notes: Human IgG1-based
Molecule B1 yielded a Kd in assay [1] of 3.4 nM.

B2: tocilizumab, recombinant monoclonal hIgG1 (anti-IL-6Rα) (antibody, V domains shown)
VH: EVQLQESGPGLVRPSQTLSLTCTVSGYSITSDHAWSWVRQPPGRGLEWIGYISYSGITTYNPSLKSRVTMLRDTSKNQFSLRLSSVTAADTAVYYCARSLARTTAMDYWGQGSLVTVSS
VL: DIQMTQSPSSLSASVGDRVTITCRASQDISSYLNWYQQKPGKAPKLLIYYTSRLHSGVPSRFSGSGSGTDFTFTISSLQPEDIATYYCQQGNTLPYTFGQGTKVEIK
notes: also called anti-IL-6Rα antibody
In the case of B2, the binding result in assay [2] is reported as “no binding (tested: 1e-6 M)”. Further, the Kd in assay [3] amounted to 28 nM; in assay [4], 3.1 nM.
